Assay results reported in patent US20030119733A1, “Compositions and methods for inhibiting hepatocyte invasion by malarial sporozoites” (New York University, priority 1992, published 2003).

B1: CSFZ (Cys): residues 27-123 plus NANP (a single instance) plus residues 300-411 of P. falciparum CS protein (protein)
chain: GSSSNTRVLNELNYDNAGTNLYNELEMNYYGKQENWYSLKKNSRSLGENDDGNNNNGDNGREGKDEDKRDGNNEDNEKLRKPKHKKLKQPGDGNPDPNANPMPNDPNRNVDENANANNAVKNNNNEEPSDKHIEQYLKKIKNSISTEWSPCSVTCGNGIQVRIKPGSANKPKDELDYENDIEKKICKMEKCSSVFNVVNSSIGLIMVLSFLFL

What was measured:
[1] = system: CS binding to HepG2 cells; assay: Enzyme treatment of HepG2 cells before CS binding; design: species or system human; conditions: heparitinase from 5 U/ml, chondroitinase ABC from 1 U/ml; CSFZ(Cys) 5 μg/ml
Method: In some experiments the HepG2 cells were treated with either heparitinase (Sigma) or chondroitinase ABC (ICN) before incubation with the CS. Heparitinase treatment was performed in 0.05 M acetate buffer, pH 6.0, containing 1 mg/ml BSA and 1 mM PMSF, 5μg/ml leupeptin and pepstatin. Cells were treated for 3 hours at 37° C. and then were washed 3× with TBS before protein was added. Chondroitinase ABC treatment was performed overnight at 37° C. in 0.1 M Tris/HCl, pH 8.0, 0.03 M sodium acetate and 0.1% BSA, and washed 3× with TBS. Enzyme-treated cells were then incubated with CS as outlined above.
Paraformaldehyde-fixed HepG2 cells were preincubated with varying amounts of enzyme, washed and then incubated with 5 μg/ml of CSFZ(Cys). […] Heparitinase and chondroitinase ABC were used at initial concentrations of 5 U/ml and 1 U/ml, respectively. […] Each point represents the mean of triplicates, and percent inhibition was calculated by comparison to cells that were not treated with enzyme.

[2] = system: plasma membrane receptors for CS; assay: Enzyme digestion of human liver sections before CS27IVC immunolabeling; type: binding; conditions: 2 hours 37°; chondroitinase ABC 2 U/ml, heparitinase 20 U/ml
Method: Normal rat kidney tissue was fixed with 4% paraformaldehyde and 1% glutaraldehyde in phosphate-buffered saline (PBS) and embedded in LR White; normal human liver was fixed similarly and embedded in Lowicryl K4M (Cerami et al., Cell 70:1021-1033, 1992). Ultrathin sections were sequentially labeled with 10-50 μg/ml CS27IVC, 15 μg/ml mAb 2A10 and a 1:30 dilution of PAG15. Prior to immunolabeling, part of the sections were incubated for 120 min at 37° C. with heparitinase and chondroitinase ABC (both ICN) using concentrations of 20 U/ml and 2 U/ml, respectively. Control specimens were incubated only with the gold markers or with mAb 2A10 and PAG15.
Human liver sections were incubated with heparitinase or chondroitinase ABC for 2 hours at 37° C., prior to immunolabeling with recombinant CS. The sections were then labelled with CS27IVC followed by mAb 2A10 and PAG15. FIGS. 8a and 8b are electron micrographs of Lowicryl K4M-embedded sections. The section of FIG. 8a was treated with 2 U/ml chondroitinase ABC (ICN) for 2 hour at 37° before the immunolabeling. The typical CS label on the space of Disse (D) and on the lateral domain of the hepatocyte plasma membrane (arrows) and on lysosomes (L) was unaltered. The patchy pattern of CS-labeled hepatocyte microvilli within the space of Disse was still present in the chondroitinase-treated sections (FIG. 8a). […]

rat liver sections = assay: Staining of frozen tissue sections with recombinant CS polypeptides; type: binding; conditions: revealed with MAb 2A10, fluorescence; CS27IVC 50-5 μg/ml, Falciparum-2 25 μg/ml, Falciparum-1 up to 250 μg/ml
Method: The procedure was carried out essentially as described by Dukor P. et al., Proc. Natl. Acad. Sci. USA 67:991-997, 1970 and Imai Y. et al., J. Cell. Biol. 111:1225-1232, 1990. Rats were euthanized with CO2. Small pieces of the liver, spleen, heart, brain and lung were removed, snap frozen in liquid nitrogen, embedded in Tissue Tek O.C.T. (Miles, Inc., Naperville, Ill.), and cut into 5 μm sections. Sections were dried for 30 min., fixed for 10 min. in 4% paraformaldehyde, rinsed three times with phosphate-buffered saline (PBS), and either used immediately or stored at 4° C. in 1% BSA, 0.5% Tween, PBS (BSA/TPBS). After blocking with 100 mM glycine (pH 7.2) and with BSA/TPBS, the sections were sequentially incubated at 37° C. with recombinant proteins for 1 hr, 10 μg/ml MAb 2A10 for 45 min., and rat anti-mouse immunoglobulin conjugated to fluorescein isothiocyanate (Boehringer Mannheim, Indianapolis, Ind.) for 45 min. The slides were counterstained for 10 min. with 0.3% Evans blue, rinsed extensively in PBS, and finally observed under a fluorescence microscope. For peptide inhibition experiments, the sections were first incubated with the peptide at various concentrations in BSA/TPBS for 1 hour at 37° C., washed six times with BSA/TPBS, and then stained with 2.5 μg/ml CS recombinant protein as described above. In a few experiments, the tissues were fixed for 10 min. with methanol, acetone, or 4% paraformaldehyde containing 0.5% glutaraldehyde.
Frozen sections of various rat organs were incubated with recombinant CS27IVC polypeptide. […] The staining closely followed the sinusoidal spaces of the hepatic lobules, indicating CS binding to the hepatocyte membrane. Other areas of the liver sections and sections of other organs (spleen, lung, heart or brain) were not stained. Control sections (incubated with CS27IVC in the absence of antibody or vice versa) were not stained either.
To define the region of the CS that mediates the perisinusoidal staining various other recombinant constructs were also used in the frozen section assay.

HepG2 cells = assay: HepG2 cell binding assay of recombinant CS polypeptides; design: species or system human; conditions: indirect immunofluorescence
Method: For indirect immunofluorescence, HepG2 cells (ATCC number HB8065, Rockville, Md.; Knowles, B. P., et al., Science 209:497-499, 1980) were grown on slides (Cel-Line Associates, Inc., Newfield, N.J.) overnight in minimum essential medium with 10% fetal calf serum (FCS-MEM; GIBCO, Grand Island, N.Y.), 1 mM L-glutamine (GIBCO), 3 mg/ml glucose (Sigma), 1×nonessential amino acids (GIBCO), 50 μg/ml penicillin, and 100 μg/ml streptomycin (GIBCO). For the enzyme-linked immunosorbent assay, 10^5 HepG2 cells were deposited in 96-well Falcon tissue culture plates (Becton Dickinson, Oxnard, Calif.) and grown for 24 hr. in FCS-MEM. The cells were fixed with 4% paraformaldehyde, washed three times with PBS, and stored at 4° C. in BSA/TPBS until use. Before the experiments, plates were blocked for 2 hr. at 37° C. with 1% gelatin, 0.05% Tween in PBS (pH 7.4) (gelatin/TPBS). […] After 15 min., fluorescence was read in a Fluoroskan II plate reader (Flow Lab Inc., McLean, Va.) with excitation filter 350 nm and emission filter 460 nm. […]
In order to quantify more accurately the effectiveness of various peptides in inhibiting the CS27IVC binding to hepatocytes additional experiments were performed using the human hepatoma cell line HepG2. This cell line is invaded readily by P.berghei sporozoites. […] The results, expressed in fluorescence units v. protein concentration are depicted in FIG. 6. […]

[3] = system: heparan sulfate proteoglycans (HSPG); assay: CS/proteoglycan co-immunoprecipitation; type: binding, human
Method: All extracts and supernatants were first precleared with normal rabbit serum and Staph A cells. Then 32 μg/ml of CSFZ(Cys) or 64 μg/ml of CS27IVC, Falc-2 or Falc-1 were added for 30 minutes, followed by 10.8 μg/ml mAb 2A10 for 30 minutes, and 1% Staph A cells (final concentrations). The suspensions were shaken for 1 to 5 hours at 4° C. The Staph A cells were washed 3 times with the lysis buffer A, 2 times with lysis buffer B (10 mM Tris-HCl, pH 7.2, containing 100 mM NaCl and 0.5% NP40), 1 time with 50 mM Tris-HCl, ph 7.2, and were processed in this buffer for electrophoresis under reducing and non-reducing conditions.
Extracts of cells metabolically labeled with ^35SO4 were incubated for 30 minutes at 4° C. with 32 μg/ml of recombinant CSFZ(Cys) or 64 μg/ml Falc-1, and were immunoprecipitated with mAb 2A10 and Staph A cells. […] Immunoprecipitation with Falc-1 was negative. The SDS-PAGE patterns of the total lysate of HepG2 cells, and of the molecules co-immunoprecipitated with CSFZ(Cys) resembled the corresponding liver SDS-PAGE patterns. In kidney lysates, CSFZ(Cys) selectively immunoprecipitated a band of slightly lower molecular weight than the total kidney sulfated molecules.
Sub-confluent HepG2 cells were incubated with various concentrations of trypsin for 5 minutes at 4° C. […] Independently of the trypsin concentration, about 80% of the released HSPG was co-immunoprecipitated by 32 μg/ml CSFZ(Cys) and 10.8 μg/ml mAb 2A10. Under the same conditions, Falc-1 was negative.
^35SO4-labeled trypsin-released proteoglycan (total supernatant) was precipitated by CSFZ(Cys) (32 μg/ml), Falc-2 (64 μg/ml), CS27IVC (64 μg/ml) and Falc-1 (64 μg/ml). The labeled molecules were incubated with CSFZ(Cys), CS27IVC, and Falc-2 at equivalent concentrations of Region II+, and co-immunoprecipitated with the mAb 2A10. CSFZ(Cys), lacking most of the repeat region, precipitated up to 86% of the total sulfate-labeled proteoglycans (see FIG. 14), while CS27IVC and Falc-2 precipitated only 18% and 6% of the counts, respectively. Falc-1, which lacks Region II+, was negative.
Subconfluent sulfate-labeled HepG2 cells were incubated with 20 μg/ml trypsin for 5 minutes at 4° C., and the supernatants were loaded onto an anion exchange chromatography Pharmacia mono-Q column. These were eluted with a 0 to 2 M NaCl gradient in the presence of 7 M urea. […] Protein was not detectable in the labeled peaks. One ml fractions were collected and counted.

Row | Molecule | effect of enzyme treatment of HepG2 cells on CS binding [1] | CS27IVC label on human liver sections after enzyme treatment [2] | binding (staining) to frozen liver sections (rat liver sections) | binding to HepG2 cells (HepG2 cells) | co-immunoprecipitation of 35SO4-labeled sulfated molecules ([3]; lysates of rat liver, HepG2 cells, kidney, CSFZ(Cys) 32 μg/ml, others 64 μg/ml) | counts in the mono-Q peak co-immunoprecipitated ([3]; peak at 0.6 to 0.8 M NaCl) | released HSPG co-immunoprecipitated ([3]; trypsin-released from HepG2 cells, CSFZ(Cys) 32 μg/ml, mAb 2A10 10.8 μg/ml) | total sulfate-labeled proteoglycans precipitated ([3]; trypsin-released proteoglycan, equivalent concentrations of Region II+)
1 | chondroitinase ABC | no effect | unaltered | – | – | – | – | – | –
2 | B1 | – | – | bound with the same pattern as CS27IVC | bound | co-immunoprecipitated sulfated molecules | about 80% | about 80% | up to 86%
